The text below walks through data of PMC7904604.

This data set deals with GST-BLMP-1(ZnFs) (Caenorhabditis elegans, UniProt Q93560 508-642). As to the kind of experiment: competition.
Sequence of GST-BLMP-1(ZnFs) (Q93560 508-642): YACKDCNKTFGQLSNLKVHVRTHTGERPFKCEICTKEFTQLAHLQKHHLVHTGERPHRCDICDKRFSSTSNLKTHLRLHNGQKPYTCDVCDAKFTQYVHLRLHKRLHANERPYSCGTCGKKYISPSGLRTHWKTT

B1: non-specific sequence (dsDNA)
DNA 1: GGCTCTTCCGGTCGTGCAAGAGGAAATACAAAAAA
DNA 2: TTTTTTGTATTTCCTCTTGCACGACCGGAAGAGCC
With B1, the binding result is on record as “no binding”.
